The conditions of the data set: N-glycosylation at N297.

“Also recorded” adds a separate entry of the source.

The text below walks through data of publication PMC7952408.

Take “Maxatezo / Atezolizumab (anti-PD-L1 human IgG1) heavy chain: N297A (Atezolizumab) compared with A297N back-mutation + GGGS insertion (Maxatezo)”: the expression_or_secretion entry is given as “decreases, 1.3 g/L (aglycosylated) vs up to 4 g/L (Maxatezo)”; the other entry is “increases”; the stability_or_folding result was “decreases, Tm1 71.01 °C (Maxatezo) vs 63.55 °C (Atezolizumab), 7.46 °C difference; also recorded: decreases, Tagg 71.2 °C (Maxatezo) vs 60.7 °C (Atezolizumab), 10.5 °C difference”.
